Results taken from US20210355194A1 (TWIST BIOSCIENCE, published 2021).
Where two headings read alike, the source gives them in different places.

Experiments:
[1] = target: T1, Acro SARS-CoV-2 (COVID-19) S1 protein (SARS-CoV-2, UniProt P0DTC2 16-685); assay: SPR
T1 construct: also called SARS-CoV-2 S1

ACE2 [2] = target: T2, ACE2 (human, UniProt Q9BYF1 18-740)
ACE2 [3] = target: T2, ACE2; remark: listed apart in the source

T2 sequence (Q9BYF1 18-740 limits assumed): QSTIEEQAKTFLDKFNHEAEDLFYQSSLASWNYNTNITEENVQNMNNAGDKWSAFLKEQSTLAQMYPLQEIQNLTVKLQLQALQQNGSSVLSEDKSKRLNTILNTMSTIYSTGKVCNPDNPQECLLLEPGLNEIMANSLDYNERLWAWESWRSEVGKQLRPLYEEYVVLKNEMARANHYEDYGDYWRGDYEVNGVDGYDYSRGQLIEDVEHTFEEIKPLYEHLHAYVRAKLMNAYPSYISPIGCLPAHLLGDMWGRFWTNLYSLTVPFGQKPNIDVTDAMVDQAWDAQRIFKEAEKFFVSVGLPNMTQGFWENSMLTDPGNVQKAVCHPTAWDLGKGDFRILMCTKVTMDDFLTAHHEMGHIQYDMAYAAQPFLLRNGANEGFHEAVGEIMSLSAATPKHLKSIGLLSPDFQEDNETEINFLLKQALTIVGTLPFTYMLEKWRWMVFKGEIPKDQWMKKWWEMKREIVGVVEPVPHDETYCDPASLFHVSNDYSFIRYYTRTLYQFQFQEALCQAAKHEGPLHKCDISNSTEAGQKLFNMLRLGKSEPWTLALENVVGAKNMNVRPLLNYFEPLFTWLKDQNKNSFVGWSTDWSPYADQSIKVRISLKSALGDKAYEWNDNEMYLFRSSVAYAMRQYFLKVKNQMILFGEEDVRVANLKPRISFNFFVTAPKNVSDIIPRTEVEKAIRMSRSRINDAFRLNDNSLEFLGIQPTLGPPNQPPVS

Binder	Kd [1]	other results
variant 6-103 (Fc fusion) VHH: EVQLVESGGGLVQPGGSLRLSCAASGRTSSPIAMGWFRQAPGKEREPVAVRWSDDYTYYADSVKGRFTISADNSKNTAYLQMNSLKPEDTAVYYCAKKLGGYYAFDIWGQGTLVTVSS	23.6 nM	
ACE2 variant antibody 4-33 (VHH) VHH: EVQLVESGGGLVQPGGSLRLSCAASGFTFSRHDMGWFRQAPGKEREFVAGINWESGSTNYADSVKGRFTISADNSKNTAYLQMNSLKPEDTAVYYCAADRGVYGGRWYRTSQYTWGQGTLVTVSS		koff (ACE2 [2]): 0.000552 s⁻¹; kon (ACE2 [2]): 229000 M⁻¹ s⁻¹; Kd (ACE2 [3]): 2.4 nM; koff (ACE2 [3]): 0.000552 s⁻¹; kon (ACE2 [3]): 229000 M⁻¹ s⁻¹
ACE2 variant antibody 4-89 (VHH) VHH: EVQLVESGGGLVQPGGSLRLSCAASGFAFGDNWIGWFRQAPGKEREWVASISSGGTTAYADNVKGRFTIIADNSKNTAYLQMNSLKPEDTAVYYCAHRGGWLRPWGYWGQGTLVTVSS		koff (ACE2 [2]): 0.000611 s⁻¹; kon (ACE2 [2]): 2.04e+06 M⁻¹ s⁻¹; Kd (ACE2 [3]): 0.3 nM; koff (ACE2 [3]): 0.000611 s⁻¹; kon (ACE2 [3]): 2.04e+06 M⁻¹ s⁻¹
ACE2 variant antibody 4-64 (VHH) VHH: EVQLVESGGGLVQPGGSLRLSCAASGRTFGDYIMGWFRQAPGKERESVAAINWSAGYTAYADSVKGRFTISADNSKNTAYLQMNSLKPEDTAVYYCATASPNTGWHFDHWGQGTLVTVSS		koff (ACE2 [2]): 0.0007 s⁻¹; kon (ACE2 [2]): 2.9e+06 M⁻¹ s⁻¹; Kd (ACE2 [3]): 0.2 nM; koff (ACE2 [3]): 0.0007 s⁻¹; kon (ACE2 [3]): 2.9e+06 M⁻¹ s⁻¹
ACE2 variant antibody 4-41 (VHH) VHH: EVQLVESGGGLVQPGGSLRLSCAASGRTFGDYIMGWFRQAPGKERESVAAINWSGGTTPYADSVKGRFTISADNSKNTAYLQMNSLKPEDTAVYYCATDPPLFCCHVDLWGQGTLVTVSS		koff (ACE2 [2]): 0.001 s⁻¹; kon (ACE2 [2]): 180000 M⁻¹ s⁻¹; Kd (ACE2 [3]): 5.6 nM; koff (ACE2 [3]): 0.001 s⁻¹; kon (ACE2 [3]): 180000 M⁻¹ s⁻¹
ACE2 variant antibody 4-49 (VHH) VHH: EVQLVESGGGLVQPGGSLRLSCAASGRTFGDYIMGWFRQAPGKERESVAAINWSAGYTAYADSVKGRFTISADNSKNTAYLQMNSLKPEDTAVYYCARASPNTGWHFDHWGQGTLVTVSS		koff (ACE2 [2]): 0.00098 s⁻¹; kon (ACE2 [2]): 2.91e+06 M⁻¹ s⁻¹; Kd (ACE2 [3]): 0.3 nM; koff (ACE2 [3]): 0.00098 s⁻¹; kon (ACE2 [3]): 2.91e+06 M⁻¹ s⁻¹
variant 6-108 (Fc fusion) VHH: EVQLVESGGGLVQPGGSLRLSCAASGGTFGSYGMGWFRQAPGKEREFVAAIRWSGGITYYADSVKGRFTISADNSKNTAYLQMNSLKPEDTAVYYCARERYWNPLPYYYYGMDVWGQGTLVTVSS	69.4 nM	
variant 6-81 (Fc fusion) VHH: EVQLVESGGGLVQPGGSLRLSCAASGFIGNYHAMGWFRQAPGKEREFVAAVTWSGGTTNYADSVKGRFTISADNSKNTAYLQMNSLKPEDTAVYYCAREGYYYDSSGYPYYFDYWGQGTLVTVSS	12.9 nM	
variant 6-67 (Fc fusion) VHH: EVQLVESGGGLVQPGGSLRLSCAASGSFSNYAMGWFRQAPGKEREFVAAISSSGALTSYADSVKGRFTISADNSKNTAYLQMNSLKPEDTAVYYCWIVGPGPLDGMDVWGQGTLVTVSS	55.6 nM	
variant 6-57 (Fc fusion) VHH: EVQLVESGGGLVQPGGSLRLSCAASGLTFDDHSMGWFRQAPGKEREFVAAVPLSGNTYYADSVKGRFTISADNSKNTAYLQMNSLKPEDTAVYYCASFSGGPADFDYWGQGTLVTVSS	205 nM	
variant 6-74 (Fc fusion) VHH: EVQLVESGGGLVQPGGSLRLSCAASGFAFGDSWMGWFRQAPGKERELVAAITSGGSTDYADSVKGRFTISADNSKNTAYLQMNSLKPEDTAVYYCARGLLWFGELFGYWGQGTLVTVSS	73.9 nM	
variant 6-75 (Fc fusion) VHH: EVQLVESGGGLVQPGGSLRLSCAASGGTFSTYWMGWFRQAPGKEREFVAAISRSGGNTYYADSVKGRFTISADNSKNTAYLQMNSLKPEDTAVYYCVRHSGTDGDSSFDYWGQGTLVTVSS	181 nM	
variant 6-53 (Fc fusion) VHH: EVQLVESGGGLVQPGGSLRLSCAASGISINTNVMGWFRQAPGKEREFVAAISTGSVTIYADSVKGRFTISADNSKNTAYLQMNSLKPEDTAVYYCARVDDFGYFDLWGQGTLVTVSS	140 nM	
variant 6-52 (Fc fusion) VHH: EVQLVESGGGLVQPGGSLRLSCAASGDTYGSYWMGWFRQAPGKEREVVAAITSGGSTVYADSVKGRFTISADNSKNTAYLQMNSLKPEDTAVYYCARVDSRFDYWGQGTLVTVSS	31.2 nM	
variant 6-79 (Fc fusion) VHH: EVQLVESGGGLVQPGGSLRLSCAASGSISSIDYMGWFRQAPGKEREGVSWISSSDGSTYYADSVKGRFTISADNSKNTAYLQMNSLKPEDTAVYYCARSPSFSQIYYYYYMDVWGQGTLVTVSS	158 nM	
variant 6-65 (Fc fusion) VHH: EVQLVESGGGLVQPGGSLRLSCAASGLPFSTLHMGWFRQAPGKEREFVASLSIFGATGYADSVKGRFTISADNSKNTAYLQMNSLKPEDTAVYYCWMYYYDSSGYYGNYYYGMDVWGQGTLVTVSS	890 nM	

Binder	Kd [1]	other results
variant 6-68 (Fc fusion) VHH: EVQLVESGGGLVQPGGSLRLSCAASGFTLSDRAMGWFRQAPGKEREYVAHITAGGLSNYADSVKGRFTISADNSKNTAYLQMNSLKPEDTAVYYCVHLASQTGAGYFDLWGQGTLVTVSS	102 nM	
variant 6-90 (Fc fusion) VHH: EVQLVESGGGLVQPGGSLRLSCAASGFPFSIWPMGWFRQAPGKEREFVAAVRWSSTYYADSVKGRFTISADNSKNTAYLQMNSLKPEDTAVYYCATGECDGGSCSLAYWGQGTLVTVSS	114 nM	
variant 6-63 (Fc fusion, VHH-Fc) VHH: EVQLVESGGGLVQPGGSLRLSCAASGQTFNMGWFRQAPGKEREFVAAIGSGGSTSYADSVKGRFTISADNSKNTAYLQMNSLKPEDTAVYYCWRLGNDYFDYWGQGTLVTVSS	21.8 nM	
variant 6-62 (Fc fusion) VHH: EVQLVESGGGLVQPGGSLRLSCAASGSTFSGNWMGWFRQAPGKEREFVAVISWTGGSTYYADSVKGRFTISADNSKNTAYLQMNSLKPEDTAVYYCATHNSLSGFDYWGQGTLVTVSS	151 nM	
variant 6-84 (Fc fusion) VHH: EVQLVESGGGLVQPGGSLRLSCAASGFTPDDYAMGWFRQAPGKEREFVAAINSGGSYTYYADSVKGRFTISADNSKNTAYLQMNSLKPEDTAVYYCARDRGPWGQGTLVTVSS	82.6 nM	
variant 6-72 (Fc fusion) VHH: EVQLVESGGGLVQPGGSLRLSCAASGSTLSINAMGWFRQAPGKEREFVAAIDWSGGSTAYADSVKGRFTISADNSKNTAYLQMNSLKPEDTAVYYCARDSSATRTGPDYWGQGTLVTVSS	92.8 nM	
variant 6-97 (Fc fusion) VHH: EVQLVESGGGLVQPGGSLRLSCAASGFTFSSLAMGWFRQAPGKEREFVAAITWSGDITNYADSVKGRFTITADNSKNTAYLQMNSLKPEDTAVYYCLRLSSSGFDHWGQGTLVTVSS	4070 nM	
variant 6-82 (Fc fusion) VHH: EVQLVESGGGLVQPGGSLRLSCAASGSSLDAYGMGWFRQAPGKEREFVAAISWGGGSIYYADSVKGRFTISADNSKNTAYLQMNSLKPEDTAVYYCARLSQGMVALDYWGQGTLVTVSS	7.1 nM	
variant 6-112 (Fc fusion) VHH: EVQLVESGGGLVQPGGSLRLSCAASGGTFSAYHMGWFRQAPGKERELVTIIDNGGPTSYADSVKGRFTISADNSKNTAYLQMNSLKPEDTAVYYCTALLYYFDNSGYNFDPFDIWGQGTLVTGSS	3230 nM	
variant 6-51 (Fc fusion) VHH: EVQLVESGGGLVQPGGSLRLSCAASGYTYSSYVMGWFRQAPGKEREFVAAISRFGSTYYADSVKGRFTISADNSKNTAYLQMNSLKPEDTAVYYCARDSGEHFWDSGYIDHWGQGTLVTVSS	35.2 nM	
variant 6-66 (Fc fusion) VHH: EVQLVESGGGLVQPGGSLRLSCAASGLTFSLFAMGWFRQAPGKERELVAAISSGGSTDYADSVKGRFTISADNSKNTAYLQMNSLKPEDTAVYYCARGNTKYYYDSSGYSSAFDYWGQGTLVTVSS	293 nM	
variant 6-102 (Fc fusion) VHH: EVQLVESGGGLVQPGGSLRLSCAASGSSFSAYAMGWFRQAPGKEREFVSAIDSEGTTTYADSVKGRFTISADNSKNTAYLQMNSLKPEDTAVYYCAGDYNFWSGFDHWGQGTLVTVSS	45.7 nM	
variant 6-99 (Fc fusion) VHH: EVQLVESGGGLVQPGGSLRLSCAASGIPFRSRTMGWFRQAPGKEREFVAGISRSGASTAYADSVKGRFTISADNSKNTAYLQMNSLKPEDTAVYYCTHANDYGDYWGQGTLVTVSS	51.6 nM	
variant 6-70 (Fc fusion) VHH: EVQLVESGGGLVQPGGSLRLSCAASGFNLDDYADMGWFRQAPGKEREFVAAIGWGGGSTRYADSVKGRFTISADNSKNTAYLQMNSLKPEDTAVYYCAREILWFGEFGEPNVWGQGTLVTVSS	35.9 nM	
variant 6-54 (Fc fusion) VHH: EVQLVESGGGLVQPGGSLRLSCAASGFEFENHWMGWFRQAPGKEREYVAHITAGGLSNYADSVKGRFTISADNSKNTAYLQMNSLKPEDTAVYYCGRHWGIYDSSGFSSFDYWGQGTLVTVSS	144 nM	
variant 6-71 (Fc fusion) VHH: EVQLVESGGGLVQPGGSLRLSCAASGITFSNDAMGWFRQAPGKEREFVAIITSSDTNDTTNYADSVKGRFTISADNSKNTAYLQMNSLKPEDTAVYYCARLHYYDSSGYFDYWGQGTLVTVSS	155 nM	
